Test results: PMC9649737
Changes are numbered by the printed parent chain. Numbers in names are those of the source.

B1: H34 wild type (H34wt) catalytic antibody light chain T93A (protein)
chain: DIQMTQSPSTLSASVGDRVTITCRASQSISSWLAWYQQKPGKAPKVLIYKASTLESGVPLRFSGSGSGTEFTLTISSLQPDDFATYYCQQYSAYRTFGQGTKVEIK
B2: H34 wild type (H34wt) catalytic antibody light chain D1A (protein)
chain: B1 chain with D1A, A93T
B3: H34 wild type (H34wt) catalytic antibody light chain R96A (protein)
chain: B1 chain with A93T, R95A
B4: H34 wild type (H34wt) catalytic antibody light chain T97A (protein)
chain: B1 chain with A93T, T96A
B5: H34 wild type (H34wt) catalytic antibody light chain R96P (protein)
chain: B1 chain with A93T, R95P

Each binder was assayed against recombinant PD-1 molecule (rPD-1), Q15116 (assay: ELISA). Details: chain shown with the change; L-chain 4 µM; coated antigen (rPD1): 2 µg/mL and 50 µL/well; parent: est. 0.94; read off a plot.
Chain of recombinant PD-1 molecule (rPD-1), Q15116 (Q15116 25-167): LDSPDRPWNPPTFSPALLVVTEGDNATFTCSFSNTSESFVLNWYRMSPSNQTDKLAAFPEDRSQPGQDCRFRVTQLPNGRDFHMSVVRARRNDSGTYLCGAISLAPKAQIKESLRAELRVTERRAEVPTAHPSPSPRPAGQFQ

Point of comparison: B2, response 1.12 OD (490nm). Against it:
- B1 — lower, 0.69 OD (490nm)
- B3 — lower, 0.07 OD (490nm)
- B4 — higher, 1.15 OD (490nm)
- B5 — lower, 0.09 OD (490nm)

Same assay, conditions: chain shown with the change; L-chain 20 µM (prozone region for this mutant); coated antigen (rPD1): 2 µg/mL and 50 µL/well; parent: est. 1.14; read off a plot

Point of comparison: B4, response 0.61 OD (490nm). Against it:
- B2 — higher, 0.63 OD (490nm)

Same assay, conditions: chain shown with the change; L-chain 20 µM; coated antigen (rPD1): 2 µg/mL and 50 µL/well; parent: est. 1.14; read off a plot

Point of comparison: B1, response 1.1 OD (490nm). Against it:
- B3 — lower, 0.16 OD (490nm)
- B5 — lower, 0.13 OD (490nm)
